Results reported in IntAct's records for PubMed 22913516.

Molecular target: kcc2b_mouse Camk2b (UniProt P28652)
Sequence (P28652 whole entry): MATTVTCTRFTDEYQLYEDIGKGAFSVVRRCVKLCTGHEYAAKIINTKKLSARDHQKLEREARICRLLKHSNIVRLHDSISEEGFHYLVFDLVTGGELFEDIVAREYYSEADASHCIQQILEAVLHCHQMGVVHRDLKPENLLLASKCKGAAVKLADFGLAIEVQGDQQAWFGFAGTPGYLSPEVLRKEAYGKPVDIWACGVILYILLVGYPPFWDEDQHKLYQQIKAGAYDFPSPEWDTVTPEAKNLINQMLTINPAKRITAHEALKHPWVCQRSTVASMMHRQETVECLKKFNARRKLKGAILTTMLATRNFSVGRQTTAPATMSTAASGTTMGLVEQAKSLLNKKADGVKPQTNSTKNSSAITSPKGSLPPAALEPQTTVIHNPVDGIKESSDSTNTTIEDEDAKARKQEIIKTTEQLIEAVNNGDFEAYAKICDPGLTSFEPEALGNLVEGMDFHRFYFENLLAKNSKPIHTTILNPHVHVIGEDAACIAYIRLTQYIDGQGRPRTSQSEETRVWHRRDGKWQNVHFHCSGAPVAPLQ

effect of a mutation on the interaction: decreasing interaction
Substance: Ryanodine receptor 1 (Oryctolagus cuniculus (Rabbit)), P11716 S2843A
